This data set deals with Escherichia coli TOP10. Description: shrunken log2 fold change of peptide-encoding DNA abundance (4.5 h post-induction vs induction); higher = less antimicrobial activity (less host growth inhibition). The conditions noted are these: time post-induction: 4.5 h; library: site-saturation at positions 5, 18, 19, 20.
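Further: peptides expressed intracellularly from a pBAD plasmid library in pooled LB shake-flask culture, induced with 0.3% L-arabinose, DNA abundance read by NGS, three biological replicates, DESeq2 with apeglm shrinkage.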

Turning to RRIRDRPPRLPRPRPRPRQGPRP, the “shrunken log2 fold change” value is 0.0779.

For RRIRSRPPRLPRPRPRPGEFPRP, the “shrunken log2 fold change” value is -0.181. Then RRIRGRPPRLPRPRPRPFPEPRP, with 0.56; and RRIRPRPPRLPRPRPRPYHNPRP, with -0.785. Then RRIRHRPPRLPRPRPRPYLIPRP, with -0.574; and RRIRGRPPRLPRPRPRPRDRPRP, with 0.789; and RRIRVRPPRLPRPRPRPTFLPRP, with -0.0973. Then RRIRFRPPRLPRPRPRPPLEPRP, with 0.288; and RRIRARPPRLPRPRPRPWSRPRP, with -0.151. As for RRIRERPPRLPRPRPRPQIKPRP, the “shrunken log2 fold change” value is -0.723. Then RRIRWRPPRLPRPRPRPFWDPRP, with 0.00494; and RRIRYRPPRLPRPRPRPKNCPRP, with -0.0167; and RRIRVRPPRLPRPRPRPMHAPRP, with -0.00559. Then RRIRDRPPRLPRPRPRPLYGPRP, with -0.105.

Take RRIRYRPPRLPRPRPRPSFQPRP: the “shrunken log2 fold change” value is -1.13. Then RRIRPRPPRLPRPRPRPMDDPRP, with 0.00641; and RRIRGRPPRLPRPRPRPRCEPRP, with 0.782; and RRIRQRPPRLPRPRPRPQGAPRP, with -0.0289.

As to RRIRLRPPRLPRPRPRPAERPRP, the “shrunken log2 fold change” value came out at 0.139.

In the case of RRIRFRPPRLPRPRPRPLHVPRP, the “shrunken log2 fold change” value was -0.208.

Take RRIRCRPPRLPRPRPRPSHMPRP: the “shrunken log2 fold change” value is -0.838. The value for RRIRARPPRLPRPRPRPRETPRP was 0.52; that for RRIRWRPPRLPRPRPRPPEAPRP was 0.428. Take RRIRVRPPRLPRPRPRPYSRPRP: the “shrunken log2 fold change” value is -0.0134. Then RRIRRRPPRLPRPRPRPPDFPRP, with -0.079; and RRIRQRPPRLPRPRPRPRWKPRP, with 0.552. Then RRIRWRPPRLPRPRPRPQHEPRP, with -0.0328. The value for RRIRARPPRLPRPRPRPRQFPRP was 0.32. RRIRLRPPRLPRPRPRPCMIPRP: the “shrunken log2 fold change” value is -0.21. As to RRIRHRPPRLPRPRPRPWMNPRP, the “shrunken log2 fold change” value was -0.0538. Then RRIRLRPPRLPRPRPRPILYPRP, with -0.314. The value for RRIRLRPPRLPRPRPRPAQLPRP was 0.166. As for RRIRIRPPRLPRPRPRPVESPRP, the “shrunken log2 fold change” value was -0.0832. Then RRIRTRPPRLPRPRPRPFFQPRP, with 0.0474; and RRIRDRPPRLPRPRPRPAIHPRP, with 0.00344. The value for RRIRQRPPRLPRPRPRPVKIPRP was 0.352. Then RRIRWRPPRLPRPRPRPNMTPRP, with 0.0683; and RRIRPRPPRLPRPRPRPKAQPRP, with -0.155. In the case of RRIRLRPPRLPRPRPRPMPFPRP, the “shrunken log2 fold change” value was -0.0289.

With RRIRRRPPRLPRPRPRPAMKPRP, the “shrunken log2 fold change” value is 0.373. The value for RRIRHRPPRLPRPRPRPHVYPRP was -0.939. Then RRIRTRPPRLPRPRPRPIRKPRP, with 0.0309. The value for RRIRLRPPRLPRPRPRPKTEPRP was 0.14; that for RRIRARPPRLPRPRPRPFWYPRP was -0.181; that for RRIRPRPPRLPRPRPRPDWMPRP was -0.212. For RRIRMRPPRLPRPRPRPQELPRP, the “shrunken log2 fold change” value stood at 0.0211. Regarding RRIRARPPRLPRPRPRPLQHPRP, the “shrunken log2 fold change” value turned out to be 1.22. The value for RRIRERPPRLPRPRPRPANKPRP was -0.632; that for RRIRWRPPRLPRPRPRPLNSPRP was -0.107; that for RRIRMRPPRLPRPRPRPNDRPRP was 0.141.

(Values after the supplement of paper PMC9112550, “Optimization of the antimicrobial peptide Bac7 by deep mutational scanning” (BMC Biology, 2022).)
